From PMC7055372

target: Transforming growth factor β-1 (TGFβ-1) (UniProt P01137); experiment: ELISA of cell-culture supernatant with anti-TGFβ-1 antibody after acid activation (latent complex formation/secretion); details: HEK293T cells transfected, supernatant after 48 h; acid-activated (short incubation with HCl); parent: est. 1.0; read off a plot

Row | Substance | response (Normalized OD450)
1 | LAP of wild-type LTGFβ-1 C4S (full-length LTGFβ-1 expressed in HEK-293T cells) (from UniProt P01137) E113P | 0.6
2 | LAP of wild-type LTGFβ-1 C4S (full-length LTGFβ-1 expressed in HEK-293T cells) (from UniProt P01137) L111P | 0.18
3 | LAP of wild-type LTGFβ-1 C4S (full-length LTGFβ-1 expressed in HEK-293T cells) (from UniProt P01137) S109P | 0.53
